Data reported in patent publication US20210025886A1 (Alexion, published 2021).

Target: T1, complement fragment C3a (Complement Technologies cat # A118) (human, UniProt P01024 672-748)
T1 construct: domain: C3a; also called purified C3a
Test: TR-FRET sandwich, purified C3a titrated from 66.6 nM, antibodies 50 nM each
Procedure: Labeled antibodies were then used to detect C3a in a sample that also contained intact C3 and C3b fragments. […] For the detection assay, complement C3 and fragments C3a and C3b were purchased from Complement Technologies (cat # A113c, A118, and A114, respectively). They were aliquoted and stored at −80° C. Each complement protein was titrated individually or as a mixture in assay buffer (10 mM HEPES pH 7.4, 0.1% BSA) at final concentrations of 66.6 nM serially diluted. Detection antibodies were combined in assay buffer to make a C3a detection mixture at final concentrations of 50 nM each in assay. Then, 15 μl of the appropriate C3 reagent was added to the appropriate wells of a white 384 well Optiplate (Perkin Elmer Cat. #600-7290). To each well, 15 μl antibody detection mix was then added. The plate was spun at 4000 RPM for 20 seconds and read on a Paradigm Spectramax instrument using the Cisbio htrf cartridge (excite at 340 nm and emit at 615 nm and 665 nm). The plate was read periodically and the signal calculated by dividing the 665 signal by the 615 signal and multiplying by 10000.

T1 sequence (P01024 672-748 limits assumed): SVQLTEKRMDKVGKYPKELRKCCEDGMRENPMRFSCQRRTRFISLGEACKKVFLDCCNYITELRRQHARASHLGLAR

B1: C3a antibody YHP133 (antibody, human IgG1, kappa, V domains shown)
VH: EVQLQQSGAELVRPGASVKLSCTASGFNIKDSLIHWVKQRPEQGLEWIGWIDPDDGETKYAPKFQDKATITADTSSNTAYLQFSSLTSEDTAIYYCAGRSGEGYFDYWGQGTTVTVSS
VL: DIVMTQSPATLSVTPGDRVSLSCRASQSISDYLHWYQQKSHESPRLLIKYASQSISGIPSRFSGSGSGSDFTLSINSVEPEDVGVYYCQNGHSFPLTFGAGTKVEIKR
modifications: labeled with d2 dye (Cisbio d2 labeling kit); site not stated
notes: Synthesized and purified according to standard procedures; used d2-labeled in the FRET assays; also called the other C3a antibody; acceptor antibody
B1: binds.
